Test: label from the status in PepcDB records

MSLKENKYDDKHFFEQYSQMPRSKEGLKAAGEWHELKKMLPDFNQKTVLDLGCGFGWHCIYAAEHGAKKVLGIDLSERMLTEAKRKTTSPVVCYEQKAIEDIAIEPDAYNVVLSSLALHYIASFDDICKKVYINLKSSGSFIFSVEHPVFTADGRQDWYTDETGNKLHWPVDRYFNESMRTSHFLGEDVQKYHRTVTTYIQTLLKNGFQINSVIEPEPAPELKDLPEMQDEYRRPMMLLISATKQEGHHHHHH
protein production: not failed

MAMADVTIRGAGIFGLSIAWACVLRGARVQVVDPFGPGAGSSGGLVGALAPHVPENWNAKKAFQFDSLIMAEGFWAGVEAAGGVSPGYGRTGRIQPLADERAVDLADERAENARTLWQGQAEWRVCPVDEMGSWCPPSPTGLVVHDTLSARMHPRRACAALVGALAVRGVEVLAEAPDRGQVIHATGIAGLEELNRARGRLVGTGVKGQAALLRFDAGRQAPQLFADTVHIVPHADGTLAIGSTSERDYDDPTSTDAALDTVLDRAMQAVPLLHGAEVIERWAGVRPRSRSRAPMLGAHPLYPDQFIANGGFKIGFGMAPKVAHVMAELVLEGQDNIPQDFRPEASL
protein production: failed

MHVALNQTMPDDVQGTVATIYTSSEQLQLFAFEAEVNENFEMAAAYYKERLVREPQNLDHWLDYGAFCLLTEDNIKAQECFQKALSLNQSHIHSLLLCGVLAVLLENYEQAEIFFEDATCLEPTNVVAWTLLGLYYEIQNNDIRMEMAFHEASKQLQARMLQAQVTKQKSTGVEDTEERGKRESSLGPWGITNGSATAIKVEAPAGPGAALSILDKFLEESSKLQSDSQEPILTTQTWDPSISQKPSNTFIKEIPTKKEASKCQDSSALLHPGLHYGVSQTTTIFMETIHFLMKVKAVQYVHRVLAHELLCPQGGPSCEYYLVLAQTHILKKNFAKAEEYLQQAAQMDYLNPNVWGLKGHLYFLSGNHSEAKACYERTISFVVDASEMHFIFLRLGLIYLEEKELEELTEAEDALSEANALNNYNAEVWAYLALVCLKVGRQLEAEQAYKYMIKLKLKDEALLAEIHTLQETVGFGNPSF
protein production: failed

MILSMSGVVLLGIVVFLFFRKDGLKGTHACTCALFGFYLSSTAIAPSIKAGGASLASLLGGIRF
protein production: failed

MISGFESIQLTTLILIVVAGFAAGWVDAVVGGGGLIQLPALLLVPGITPVQALATNKMGSIFGTTTSAVTYYRRVGPDLKTAVPMAVIALAGSFGGAILAASLPASVFKPIIVLALIAVAIFTALRPGAGELTALRHDGHKHYVVACLIGAVIGFYDGLIGPGTGSFLVIALVSAMGYAFLEASAKAKIVNMATNAGALIFFLPHGSLLWGVGLILGLANMAGGYLGARTAVARGSKFVRLVFLMVVAALIIKLGMDVWNENFAA
protein production: failed

MLGFKDIPLTKKVIHIINDIERPFMIRWSNSHDVQQIHDWLQEEEALEVHGNFLCNWNLTRQCHEEGRLLVLIDEIKGIPVAYQWGQLLSSGILQVRNGWRGNGLGRLVVEHCVELALQQDEMVLQVECKPSSSIPFWEAMGFTIVEGEFGKNAKGFRVLSKNLALPPGGRPILATISSFPEERNWQDNVPAIASYHLNAIVADDGKVYLAERASFPKCFRRMSRDPVIEIIVEGKLVYRDKAKYQGAQDHGVKWCRNGFYIDVVTI
protein production: failed

MKYTQSFCFVSVIVLSSSVHLHGQNNKMNVLLIIADDMRPELGCYGIEDIVTPRLDSLARYATVFQNAYCNIPVSGASRASLFTGMYPRYPNRFTAFDASAEKDCPEALSLPECFKKNGYYVVSNGKVFHNITDHADSWSEAPWRVHPDGYGKDWAEYNKWELWQNEESSRYVHPKTLRGPFCESADVADTTYIDGRVAQKTIADLRRLHKKEKPFFLACGFWKPHLPFNAPKKYWDLYRREEIHLAQNPYRPKALPKQVTSSGEIRGYGKFVTTKDETFQREAKHGYYACVSYIDAQIGLILDELDRLGLSENTIVVILGDHGWHLGEHGFWGKHNLMNHATRAPLIVRVPHCRGGKAKGIVEFVDIYPTLCELCGVPMPKDQLQGKSFVPILQDSGKKTKQYAFIQWKGGYNIVSEQYSSTIWLQGDSVVARMIFDRQLDASENENKVHCPYLSRERDKLEAQIKIRKSQLLEHHHHHH
protein production: failed

MIISELVHNNLRGGNKTHNLELKLPVKPVIGGSSSEDDAIVADASSLMHGDNPGLEFRHKELEAPLIPQRTHSLLYQPQKKVKPEATDSYVSQLTAEADDHLQSPNRDSLYTSMPNLRDSPYPESSPDMAEDLSPSRRSENEDIYYKSMPNLGAGRHLHMCYQISRGNSDGYIIPINKEGCIPEGDVREGQMQLVTSL
protein production: failed

MNIRMGTKGKRPLRSLTPRDKIHAIQRIHDGESKASVARDIGVPESTLRGWCKNEDKLRFMSRQSATDNLCADALGDKMDGGGGGGGGAGGGGLLGPPEKRQRLDGALPLNFSNKLKFDELAFKRSPLNGLDYSTNKNLADLGYNGLPVDYAAFNGGVKAKVFGADINRPAADPSLNAISPLSSLTHLSGLTGISQSPLAISFNELTTNLNLLAQLNPGLAAMSGLNSF
protein production: not failed

MAFRITSQLRPVGNQFGGSRRFATTVADGAKQTYNKFSIMGEFAPVAIIGGFVGLAVLMAGHSLKQQLMHAPAISTRKNRRAAVAEVDDPENCVSSADKFINKSWLRKVGQIQDKSKAILSDPTRPNPFTTPRNAETLNSVGVAPKGI
protein production: failed

MFYTTKSSMNQHNIFFGSSHVVVPVTKPFPFSLDGHVEDEDNLESQYLQWLEERVDENNNINDDQSVGERDVGDDDIDRLADKFIARCHEKFLLEKVESYRRFQDMLARSL
protein production: failed

MPLTIRPARFEELPAVQAIERLSARRFVGWIDALADDDPSPLERLAERSASGGLLVADVETGEGPKAAGFVMFRPMEDSLYIEQIDVAPAFERRRIGATLINAVADRAVALGLSRLTLSTFREIPWNAPYYRRLGFVDLDDEA
protein production: failed

MVGTFLGTGASSGVPMLNCSCKVCTSSYSKNKRLRSSFFLESSSGIKLLIDTGPDIRQQLLREKIDRLDLVLYTHEHYDHIMGFDDIKFYTRCAPLNIYARDTAMAHIRNAFPYNFTSKPSLSGKADIIANVIRDFEPFFFKSLKIVPIPLIHGDIISLGYRVGNLAYLTDVKFIPEASYDYLKNLDLLIIDAMRIKPHPAHLNFSEAFCVIKKINPKISYFTHIAHDIMHEEFDYLEKDNIYLAYDGLKIYILEHHHHHH
protein production: failed

PITDERVYESIGHYGGETVKIVRIEKARDIPLGATVRNEMDSVIISRIVKGGAAEKSGLLHEGDEVLEINGIEIRGKDVNEVFDLLSDMHGTLTFVLIPS
protein production: not failed

MEITLNSGFKMPIIGLGVWRMEKEELRDLIIDAIKIGYRHLDCAANYKNEAEVGEALTEAFTTGLVKREDLFITTKLWSSDHGHVIEACKDSLKKLQLDYLDLFLVHIPIATKHTGIGTTDSALGDDGVLDIDTTISLETTWHDMEKLVSMGLVRSIGISNYDVFLTRDCLAYSKIKPAVNQIETHPYFQRDSLVKFCQKHGICVTAHTPLGGATANAEWFGTVSCLDDPVLKDVAEKYKQTVAQIVLRWGIQRNTVVIPKTSKPERLEENFQVFDFQLSKEDMEVIKSMERNYRTHQTAKFWGIELYA
protein production: not failed

MPMPSVRHDEHRPLSPAATLIGPARALEAVLAPGPGPGRPPGLPRPAPGTRRAMKWQQVQEGPSAVYVVVLDQGEDAVAELTAFARERSLGASQVTAVGAFSQAVVGWFDRQAKDYRHIPVREQCEVLSLIGDIAVADDGPTPHLHAVLGLSDGSTRGGHLLSGRVWPTLEVVVRDSPAELAKIHRPDIGLALIDPG
protein production: failed

MWSILALGAVERCIHHIIDLDAITRIQTNQLQGKLLRVVTDSPQLSVDVFFDENRVRLEPTVTGQSQTPSIFEQRPFDPQYKMTDATATLHVKNIVELVKLLFNDPDQIGNIPVEGDYHLLQDIQKIMQQSEPDLAAHLSPWIGPALAHELGKIRLAPQQLKRSMQSHLFFVEDALKEDSGLFAPRWQMDDLQHATRQLNQELDRVEARLQQLNLQLQSDN
protein production: failed

MKMSELEKMLKGEHFDGASAEIEALRSQAGRLKLEINQSLDEAERYALQRELFGHLGHKSCVQPPFHCEFGKTIRIGDHTFINMNVVMLDGAPITIGDHVLIGPSTQFYTASHSLDYRRRQAWETICKPIVIEDDVWIGGNVVINQGVTIGARSVVAANSVVNQDVPPDTLVGGTPARILRSLKDPAESMAE
protein production: not failed

MSLAPCGLVPSARQLEWYNREMIAFFHFGINTFEEYVNEGDGKASTAIFNPTALDCRQWMQTLKAAGIPAAILTAKHADGFCLWPSKYTDYSVKNAAWKNGKGDVVREFVDACEEYGLKAGIYLGPHDRHEHLSPLYTTERYKEYYAHQLGELMSDYGKIWETWWDGAGADELTTPVYRHWYKIVREKQPDCVIFGTKNSYPFADVRWMGNEAGEAGDPCWATTDSVAIRDEAQYYKGLNEGMLDGDAYIPAETDVSIRPSWFYHAEEDSRVKSVRELWDIYCTSVGRNSVLLLNFPPDRRGLIHSTDSLHAALLKQGIDETFSTNLLRGAKVKATNVRGAKYSPEKMLDNEKNTYFAGKDGEVKADIIFTLPKTIEFDCLMIEEVIELGHRTTKWSVEYTVDGKNWITIPEATDKQAIGHKWIVRLAPVKAKQVRLRIQDGKACPAIHTFGVYKQSPVFKEGHHHHHH
protein production: not failed

MSHHNPLVSVVIPSKNRPDLVIATLVSVIDQTYDNIEIIVVDDGSDMPLAPLLKDRFSDRVLCLRNDQSLGGAVARNRGAQSAHGDYITFLDDDDLWLPKKLEMQVDAFSKHGVDIGVVYCGFDFLCKEEIVPRQNKFHNDYDLSIAVLSGCPFGSPTPLIRKHYFDMVGGFDRELPSCQDWDLWIRLSKVCGFYPVKESLALYRVHGDQISTNLRKKIDGRKMVLAKHYDEIKNYPRVLSAHYSRIGSLCVLADEHVEARDFFSKALASNMFDGGSFVHLVLQFLCRPLEKWLIERFSVNTIDGIKVIHLEHHHHHH
protein production: failed

MRVISGEYGGRRLKALDGDNTRPTTDKVKESIFNMIGPYFDGGMALDLYSGSGGLAIEAVSRGMDKSICIEKNFAALKVIKENIAITKEPEKFEVRKMDANRALEQFYEEKLQFDLVLLDPPYAKQEIVSQLEKMLERQLLTNEAVIVCETDKTVKLPETIGTLKKTRETVYGITQVTIYRQEA
protein production: not failed

MPDSPFVSVVVPVYNDPEGVKDTLHALVDQRDAPAFEVRVVDNDSTDETMQVIEAFAADHPEIYCHTETEIQSSYAARNTGIEHAGGDVIVFLDADVVVERTCLRDISRTFEGSDVDYVGCNVQMYNPGETDTFWTKYDLAMGLPVEHYLRRKRFAPTCALAVRREVIEAVGTFDDELVSGGDKEFGNRVSEAGFRMGFAEGIVAKHPARTSLKRNIQKSTRIGKGQVQLWAGYGLAAHPVSYTRYLPPDPQRVRNRRDAQFDLVSIYLAEILLKYVQSATVLYLYLKRLLKRVSGDTT
protein production: failed

MSSPAILLFDIDGVIRDVAGSYRRALQVTVEHYSGWQPMAADIDALKAEGCWNNDWDASLELLRRHENDVPSRSELIEVFSGFYFGGDPEGDPAEWQGFIGDEPLLVTRAFFDELTRHDIRWGFVSGAEPPSARYVLQQRLDLKDPPLIAMGDAPDKPDPTGLIRLAEQMAAGEVPHWIAYIGDTVADVQTVLNARKRRPELPWRSLAVAPPHVTDVSTYHRQLQDAGADRIVGATRELLPMLLDELA
protein production: failed

MDKESTKWIRFLGGKNLLYTLTILCLIAVTIFLFNTVSFIFKPIFVIFSAVLGPVLFGIILFYLLNPMVKRLEKKIPRVWAIAILYVLIIALLVLAGLQLFPIIQDQTEELIKQFPSFWKSTLQTVQEFMAKTPFAKDLESANESINQLWGKLANSFKDFAGDYLQTGAQGLGSVFSAVSSTFLTLFTGPIIAFFLLKDKEKFYRFVKGIIPPAFRPDFDEYSQIANIQIGDYLKGQVIASLVLGIMYWPAFLLIGLQFGSILALAAGILCIIPYIGPFIAFIPGLIIAFQDSTFMVVKFVIVWFAIQLIHGDFVIPRVMGDKLKVHPITILLVLLVMGELFGLMGVIFGIPMYCLVKVTVIYLFRKFKQRYNRFYGDNGEYEHTNFTKDQYLK
protein production: failed

— a protein production outcome set (Wang et al. 2014)
